Legend:
[1] = target: T1, recombinant human CD47 (His-CD47) (Homo sapiens, UniProt Q08722); experiment: Solid-phase His-CD47 ELISA at pH 6 or pH 8; format: binding; settings: pH 6.0 vs pH 8.0
T1 construct: His; purchased Acro Biosystems
Description: Binding by soluble anti-CD47 mAbs to immobilized recombinant human CD47 and to human CD47 expressed on cells was measured in vitro. For the in vitro binding to recombinant CD47, His-CD47 (AcroBiosystems) was adsorbed to high-binding microtiter plates overnight at 4° C. The wells were washed and varying concentrations of anti-CD47 mAbs were added to the wells in buffers with a of either pH 6 or pH 8 for 1 hour. The wells were washed and then incubated with HRP-labelled secondary antibody for 1 hour at pH 6 or pH 8 followed by addition of peroxidase substrate. The apparent affinities were calculated using non-linear fit model (Graphpad Prism).

[2] = test system: Jurkat cells; experiment: In vitro cell death assay (annexin V / 7-AAD); format: cell-based, human; settings: 1 μg/ml soluble mAb, 24 hrs
Description: Induction of cell death by soluble anti-CD47 mAbs is measured in vitro (Manna et al. (2003) J. Immunol. […] (7): 3544-53, Kikuchi et al. Biochem Biophys Res. Commun. 315: 912-8, 2004), Pettersen et al. J. Immuno. 162: 7031-7040, 1999), Manna et al. Cancer Research, 64: 1026-1036, 2004). For the in vitro cell death assay, 1×10^5 transformed human T cells (Jurkat cells) were incubated with soluble humanized VLX4, VLX8, and VLX9 CD47 mAbs (1 μg/ml) for 24 hrs at 37° C. As cell death occurs, mitochondrial membrane potential is decreased, the inner leaflet of the cell membrane is inverted, exposing phosphatidylserines (PS), and propidium iodide (PI) or 7-aminoactinomycin D (7-AAD) is able to incorporate into nuclear DNA. In order to detect these cellular changes, cells were then stained with fluorescently labelled annexin V and PI or 7-aminoactinomycin D (7-AAD) (BD Biosciences) and the signal detected using an Accuri C6 flow cytometer (BD Biosciences). The increase in PS exposure is determined by measuring the percent increase in annexin V signal and the percent of dead cells by measuring the percent increase in PI or 7-AAD signal. Annexin V positive (annexin V+) or annexin V positive/7-AAD negative (annexin V^+/7-AAD^−) cells are observed in early stages of cell death and annexin V positive/7-AAD positive (annexin V^+/7-AAD^+) cells are dead cells. […]

[3] = test system: human red blood cells (hRBCs); experiment: Hemagglutination of washed hRBCs; format: cell-based; settings: mAb concentrations 50 μg/ml down to 0.3 ng/ml or 0.3 pg/ml
Description: Hemagglutination of hRBCs was assessed following incubation of hRBCs with various concentrations of chimeric and humanized VLX4, VLX8, and VLX9 mAbs in vitro essentially as described by Kikuchi et al. Biochem Biophys Res. Commun (2004) 315:912-918. Blood was obtained from healthy donors, diluted (1:50) in PBS/1 mM EDTA/BSA and washed 3 times with PBS/EDTA/BSA. hRBCs were added to U-bottomed 96 well plates with equal volumes of the antibodies (75 μl of each) and incubated for 3 hrs at 37° C. and overnight at 4° C.

T1 sequence (Q08722 19-323): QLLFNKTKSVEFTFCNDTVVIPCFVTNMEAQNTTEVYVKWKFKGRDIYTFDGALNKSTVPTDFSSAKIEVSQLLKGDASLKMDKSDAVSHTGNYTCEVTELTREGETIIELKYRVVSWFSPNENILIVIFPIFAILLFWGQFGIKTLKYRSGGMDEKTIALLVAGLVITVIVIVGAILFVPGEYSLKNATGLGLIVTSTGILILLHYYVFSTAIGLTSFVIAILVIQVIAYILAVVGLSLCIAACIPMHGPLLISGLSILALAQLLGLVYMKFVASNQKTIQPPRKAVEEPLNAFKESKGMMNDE

Molecule | pH dependence of binding to His-CD47 [1] | PS exposure and cell death (annexin V+, annexin V+/7-AAD−, annexin V+/7-AAD+) [2] | hemagglutination of hRBCs (in words) [3]
VLX9 IgG (murine): murine VLX9 anti-CD47 antibody (antibody, V domains shown) VH: QVQLQQFGAELAKPGASVQMSCKASGYTFTNYWIHWVKQRPGQGLEWIGYTDPRTDYTEYNQKFKDKATLAADRSSSTAYMRLSSLTSEDSAVYYCAGGGRVGLGYWGHGSSVTVSS VL: DVFMTQTPLSLPVSLGDQASISCRSSQNIVQSNGNTYLEWYLQKPGQSPKLLIYKVFHRFSGVPDRFSGSGSGTDFTLKISRVEAEDLGVYYCFQGSHVPWTFGGGTKVEIK | did not display pH dependence | – | –
VLX9 IgG2 (xi): chimeric (murine-human) anti-CD47 mAb, human IgG2 (antibody) heavy: QVQLQQFGAELAKPGASVQMSCKASGYTFTNYWIHWVKQRPGQGLEWIGYTDPRTDYTEYNQKFKDKATLAADRSSSTAYMRLSSLTSEDSAVYYCAGGGRVGLGYWGHGSSVTVSSASTKGPSVFPLAPCSRSTSESTAALGCLVKDYFPEPVTVSWNSGALTSGVHTFPAVLQSSGLYSLSSVVTVPSSNFGTQTYTCNVDHKPSNTKVDKTVERKCCVECPPCPAPPVAGPSVFLFPPKPKDTLMISRTPEVTCVVVDVSHEDPEVQFNWYVDGVEVHNAKTKPREEQFNSTFRVVSVLTVVHQDWLNGKEYKCKVSNKGLPAPIEKTISKTKGQPREPQVYTLPPSREEMTKNQVSLTCLVKGFYPSDIAVEWESNGQPENNYKTTPPMLDSDGSFFLYSKLTVDKSRWQQGNVFSCSVMHEALHNHYTQKSLSLSPGK light: DVFMTQTPLSLPVSLGDQASISCRSSQNIVQSNGNTYLEWYLQKPGQSPKLLIYKVFHRFSGVPDRFSGSGSGTDFTLKISRVEAEDLGVYYCFQGSHVPWTFGGGTKVEIKRTVAAPSVFIFPPSDEQLKSGTASVVCLLNNFYPREAKVQWKVDNALQSGNSQESVTEQDSKDSTYSLSSTLTLSKADYEKHKVYACEVTHQGLSSPVTKSFNRGEC | – | induced increased PS exposure and cell death | caused visible hemagglutination

— patent US20190309066A1, “COMBINATION THERAPY FOR THE TREATMENT OF SOLID AND HEMATOLOGICAL CANCERS” (Arch Oncology, Inc., priority 2017, published 2019)
